Columns and labels:
[1] = target: Halo 635-K421A LIG3α (catalytically dead); assay: single-molecule fluorescence colocalisation on tethered DNA (SMADNE, LUMICKS C-trap); nuclear extract diluted 1:10 in 20mM HEPES pH 7.5, 150mM NaCl, 1mM DTT, 5% glycerol, 0.5mg/ml BSA, 1mM trolox; nicked λ DNA with eight observable ligatable nicks tethered between streptavidin beads, 10 pN tension; kymographs at 10 frames per second; proteins at 0.1–2 nM
[2] = target: Halo 635-ΔZnF LIG3α; assay: as above
[3] = target: N-terminal tagged Halo635 LIG3α (DNA Ligase 3α, nuclear, wild type); assay: as above
[4] = target: N-terminal tagged Halo635 LIG3α (DNA Ligase 3α, nuclear, wild type); assay: single-molecule fluorescence colocalisation on tethered DNA (SMADNE, LUMICKS C-trap); as a1 but on calf-intestinal alkaline phosphatase (CIP) treated nicked λ DNA with 8 observable non-ligatable (5'OH) nick sites, 10 pN tension
[5] = target: Cy3-labeled human histone nucleosome core particle reconstituted on the Widom 601 sequence (human); assay: single-molecule fluorescence imaging on a tethered nucleosome (SMADNE, LUMICKS C-trap); Cy3-labeled undamaged 601 NCP ligated into 6 kb biotinylated DNA handles and tethered between optically trapped streptavidin beads, 4–5 pN tension; tagged proteins from nuclear extract; lifetimes from …; KD from koff, apparent kon and protein concentration
[6] = tested on: T1, LIG3α WT (nuclear), P49916-3; assay: single-molecule (SMADNE, optical tweezers); details: 20 mM HEPES pH 7.5, 150 mM NaCl, 1 mM DTT, 5% glycerol, 0.5 mg/ml BSA, 1 mM trolox, 25 °C, nuclear extract diluted 1:10, 10 pN (λ DNA) or 4-5 pN (NCP)
T1 sequence: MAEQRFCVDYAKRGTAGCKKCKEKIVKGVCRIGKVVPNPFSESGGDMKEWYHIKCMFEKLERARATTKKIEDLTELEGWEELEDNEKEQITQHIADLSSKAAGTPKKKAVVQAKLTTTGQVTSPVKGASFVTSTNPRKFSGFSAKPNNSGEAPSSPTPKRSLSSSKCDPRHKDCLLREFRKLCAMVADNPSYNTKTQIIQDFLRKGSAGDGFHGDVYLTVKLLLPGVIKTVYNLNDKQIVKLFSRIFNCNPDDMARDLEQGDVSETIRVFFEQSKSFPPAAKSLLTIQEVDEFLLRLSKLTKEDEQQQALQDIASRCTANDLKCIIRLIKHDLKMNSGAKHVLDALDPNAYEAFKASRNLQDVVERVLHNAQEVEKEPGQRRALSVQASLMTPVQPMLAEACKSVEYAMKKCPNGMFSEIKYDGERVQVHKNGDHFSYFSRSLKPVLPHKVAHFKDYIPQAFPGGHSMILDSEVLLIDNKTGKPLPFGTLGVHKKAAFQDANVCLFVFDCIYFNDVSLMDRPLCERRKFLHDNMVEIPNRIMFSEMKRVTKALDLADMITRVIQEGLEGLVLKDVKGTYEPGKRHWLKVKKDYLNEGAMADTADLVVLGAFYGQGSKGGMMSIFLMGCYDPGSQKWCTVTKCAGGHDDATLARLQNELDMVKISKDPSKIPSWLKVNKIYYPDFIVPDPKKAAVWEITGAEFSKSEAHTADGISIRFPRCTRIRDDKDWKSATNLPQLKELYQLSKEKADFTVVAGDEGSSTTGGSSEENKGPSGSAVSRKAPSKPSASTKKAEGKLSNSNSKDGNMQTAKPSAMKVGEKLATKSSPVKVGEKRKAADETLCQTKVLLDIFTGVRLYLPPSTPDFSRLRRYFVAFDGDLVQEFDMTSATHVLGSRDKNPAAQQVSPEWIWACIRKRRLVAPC

[7] = tested on: T2, LIG3α ZnF-BRCT internal_change, P49916-3; assay: single-molecule (SMADNE, optical tweezers); details: 20 mM HEPES pH 7.5, 150 mM NaCl, 1 mM DTT, 5% glycerol, 0.5 mg/ml BSA, 1 mM trolox, 25 °C, nuclear extract diluted 1:10, 10 pN (λ DNA) or 4-5 pN (NCP)
T2 sequence: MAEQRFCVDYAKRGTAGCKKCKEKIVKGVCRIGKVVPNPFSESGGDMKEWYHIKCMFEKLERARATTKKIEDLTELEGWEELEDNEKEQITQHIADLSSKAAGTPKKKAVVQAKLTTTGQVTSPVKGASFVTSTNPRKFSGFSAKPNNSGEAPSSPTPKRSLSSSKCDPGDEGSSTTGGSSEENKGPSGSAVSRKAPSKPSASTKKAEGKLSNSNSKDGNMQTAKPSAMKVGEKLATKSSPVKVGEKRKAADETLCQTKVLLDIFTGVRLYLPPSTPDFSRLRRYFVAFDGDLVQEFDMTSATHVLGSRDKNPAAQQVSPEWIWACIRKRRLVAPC

[8] = target: XRCC1-YFP (UniProt P18887); assay: single-molecule (SMADNE, optical tweezers); details: 20 mM HEPES pH 7.5, 150 mM NaCl, 1 mM DTT, 5% glycerol, 0.5 mg/ml BSA, 1 mM trolox, 25 °C, nuclear extract diluted 1:10, 10 pN (λ DNA) or 4-5 pN (NCP)
[9] = target: Cy3-labeled human histone nucleosome core particle reconstituted on the Widom 601 sequence (human); assay: single-molecule fluorescence imaging on a tethered nucleosome (SMADNE, LUMICKS C-trap); as a3 but 601 NCP with one non-ligatable nick (3'OH and 5'OH) at SHL -2.5, 5 pN tension
[10] = target: Cy3-labeled human histone nucleosome core particle reconstituted on the Widom 601 sequence (human); assay: single-molecule fluorescence imaging on a tethered nucleosome (SMADNE, LUMICKS C-trap); as a3 but 601 NCP with one non-ligatable nick (3'OH and 5'OH) at SHL 0, 5 pN tension
[11] = target: Cy3-labeled human histone nucleosome core particle reconstituted on the Widom 601 sequence (human); assay: single-molecule fluorescence imaging on a tethered nucleosome (SMADNE, LUMICKS C-trap); as a3 but 601 NCP with one non-ligatable nick (3'OH and 5'OH) at SHL -4.5, 5 pN tension
[12] = target: XRCC1-YFP (UniProt P18887); assay: single-molecule (SMADNE, optical tweezers); details: nicks with 3'OH and 5'P; 20 mM HEPES pH 7.5, 150 mM NaCl, 1 mM DTT, 5% glycerol, 0.5 mg/ml BSA, 1 mM trolox, 25 °C; nuclear extract diluted 1:10; 10 pN (λ DNA) or 4-5 pN (NCP)
[13] = tested on: LIG3α K421A; assay: single-molecule (SMADNE, optical tweezers); details: nicks with 3'OH and 5'P; 20 mM HEPES pH 7.5, 150 mM NaCl, 1 mM DTT, 5% glycerol, 0.5 mg/ml BSA, 1 mM trolox, 25 °C; nuclear extract diluted 1:10; 10 pN (λ DNA) or 4-5 pN (NCP)
[14] = tested on: T3, LIG3α ΔZnF, P49916-3; assay: single-molecule (SMADNE, optical tweezers); details: nicks with 3'OH and 5'P; 20 mM HEPES pH 7.5, 150 mM NaCl, 1 mM DTT, 5% glycerol, 0.5 mg/ml BSA, 1 mM trolox, 25 °C; nuclear extract diluted 1:10; 10 pN (λ DNA) or 4-5 pN (NCP)
T3 sequence: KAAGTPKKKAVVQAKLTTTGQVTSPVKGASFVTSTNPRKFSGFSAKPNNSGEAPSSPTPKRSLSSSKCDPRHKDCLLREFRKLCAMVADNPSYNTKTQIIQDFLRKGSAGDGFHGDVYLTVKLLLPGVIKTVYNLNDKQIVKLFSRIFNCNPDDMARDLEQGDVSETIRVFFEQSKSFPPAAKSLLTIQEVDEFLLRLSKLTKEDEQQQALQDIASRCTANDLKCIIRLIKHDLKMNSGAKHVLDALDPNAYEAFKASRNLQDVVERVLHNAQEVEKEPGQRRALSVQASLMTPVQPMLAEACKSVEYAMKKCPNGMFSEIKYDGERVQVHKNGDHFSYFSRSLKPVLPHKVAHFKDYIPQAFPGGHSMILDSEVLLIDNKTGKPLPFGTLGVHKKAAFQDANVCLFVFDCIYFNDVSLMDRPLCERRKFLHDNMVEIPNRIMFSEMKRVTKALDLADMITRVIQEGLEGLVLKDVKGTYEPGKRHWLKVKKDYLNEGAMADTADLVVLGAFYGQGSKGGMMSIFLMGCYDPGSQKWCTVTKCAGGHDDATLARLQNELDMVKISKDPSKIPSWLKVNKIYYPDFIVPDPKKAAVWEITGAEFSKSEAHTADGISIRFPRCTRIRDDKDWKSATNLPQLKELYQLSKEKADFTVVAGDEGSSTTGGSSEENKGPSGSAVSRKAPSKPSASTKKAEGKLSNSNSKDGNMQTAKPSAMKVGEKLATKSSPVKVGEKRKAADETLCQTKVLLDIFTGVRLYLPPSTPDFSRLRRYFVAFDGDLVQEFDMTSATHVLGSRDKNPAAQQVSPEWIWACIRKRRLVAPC

[15] = 5'-phosphates removed (5'OH at nicks)

Sequence of XRCC1-YFP (P18887 whole entry): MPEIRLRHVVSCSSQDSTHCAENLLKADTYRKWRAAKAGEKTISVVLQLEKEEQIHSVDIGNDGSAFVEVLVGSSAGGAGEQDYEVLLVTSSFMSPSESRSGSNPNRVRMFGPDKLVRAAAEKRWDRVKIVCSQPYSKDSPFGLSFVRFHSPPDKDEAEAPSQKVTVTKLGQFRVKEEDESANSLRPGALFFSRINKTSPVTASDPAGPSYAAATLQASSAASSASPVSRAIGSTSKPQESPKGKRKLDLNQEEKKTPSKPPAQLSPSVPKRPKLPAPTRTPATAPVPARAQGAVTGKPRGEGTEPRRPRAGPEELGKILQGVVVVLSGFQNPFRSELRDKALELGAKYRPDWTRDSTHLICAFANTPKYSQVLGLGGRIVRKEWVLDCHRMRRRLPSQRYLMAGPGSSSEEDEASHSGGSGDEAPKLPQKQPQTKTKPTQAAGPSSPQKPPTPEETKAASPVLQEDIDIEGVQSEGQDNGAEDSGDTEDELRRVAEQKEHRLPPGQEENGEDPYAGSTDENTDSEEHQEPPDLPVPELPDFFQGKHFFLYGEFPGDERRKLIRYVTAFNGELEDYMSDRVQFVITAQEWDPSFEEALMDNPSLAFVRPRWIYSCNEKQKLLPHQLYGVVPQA
Sequence of C-terminal YFP tagged XRCC1 (X-ray cross complementing protein 1) (P18887 whole entry): as above

Substance “C-terminal YFP tagged XRCC1 (X-ray cross complementing protein 1) (from UniProt P18887 1-633) (natural protein)” has a percent of binding events colocalized [1] of 7.6%, a percent of binding events colocalized [2] of 16.3% and an average lifetime of both proteins together on the DNA [3] of 0.7 s. It also gave a percent of binding events colocalized [3] of 17.1%, a percent of binding events colocalized [4] of 9.7% and a Kd [5] of 0.6 nM.

In the case of “CAACTGAGACCATGTACCCAGTTCGAATCGGATGTATATATCTGACACGTGCCTGGAGACTAGGGAGTAATCCCCTTGGCGGTTAAAACGCGGGGGACAGCGCGTACGTGCGTTTAAGCGGTGCTAGAGCTGTCTACGACCAATTGAGCGGCCTCGGCACCGGGATTCTCGATAACTCAGCAATAGTGGGTCTCA / ACCATGAGACCCACTATTGCTGAGTTATCGAGAATCCCGGTGCCGAGGCCGCTCAATTGGTCGTAGACAGCTCTAGCACCGCTTAAACGCACGTACGCGCTGTCCCCCGCGTTTTAACCGCCAAGGGGATTACTCCCTAGTCTCCAGGCACGTGTCAGATATATACATCCGATTCGAACTGGGTACATGGTCTCA [undamaged 601 NCP]”, the Kd ([6]; 5'-phosphate on both strands) is reported as 0.03 nM, the Kd ([7]; 5'-phosphate on both strands) is reported as 1.1 nM and the Kd ([8]; 5'-phosphate on both strands) is reported as 0.6 nM.

Work on “CIP-treated nicked λ DNA, non-ligatable nicks” yielded a Kd [6, 15] of 1.64 nM and a Kd [8, 15] of 17 nM.

With “N-terminal tagged Halo635 LIG3α (DNA Ligase 3α, nuclear, wild type) (enzyme)” the lifetime (Tau) [9] was 12.2 s, the lifetime (Tau) [10] was 10.2 s and the Kd [5] was 0.03 nM. For the same substance, the lifetime [5] was 23.6 s, the lifetime (Tau) [5] was 23.7 s and the lifetime (Tau) [11] was 17.3 s.

“nicked λ DNA (Nt.BspQI), ligatable nicks” was tested, and the Kd [12] was 4 nM, the Kd [13] was 0.4 nM and the Kd ([6]; nicks with 3'OH and 5'P) was 0.1 nM. It also gave a Kd ([7]; nicks with 3'OH and 5'P) of 3.2 nM, a Kd [14] of 0.09 nM and a Kd ([8]; nicks with 3'OH and 5'P) of 1.5 nM.

For single non-ligatable nick, no NCP, the Kd ([6]; non-ligatable nick) was 2.5 nM.
